From patent US20060045876A1 (LUDWIG INSTITUTE FOR CANCER RESEARCH, published 2006)
Each block holds one binder with its values, some of them ahead of it.

Legend:
[1] = target: G250 antigen (UniProt Q16790 38-459); assay: flow cytometry (FACS) on G250 positive tumor cells
[2] = target: T1, recombinant human GM-CSF (human, UniProt P04141 18-144); assay: SPR (BIAcore 2000), rhGM-CSF on the chip, global fitting of Rmax
T1 construct: also called rhGM-CSF
Procedure: Biosensor analyses were carried out using a commercially available, BIAcore 2000, and a carboxymethyldetran coated sensor chip. The chip was derivatized with 1000, 300, or 100 RVs of recombinant human GM-CSF, on channels 1, 2, and 3 of the machine using standard amine coupling chemistry with channel 4 retained as the control blank channel.
After injection, dissociation was monitored by allowing HBS buffer to flow over the chip surface for 5 minutes. Any bound antibody was then eluted, and the chip surface was regenerated, between samples, via injecting 40 μl of 100 mM HCl, pH 2.7, at a rate of 5 μl/min.

T1 sequence (P04141 18-144 limits assumed): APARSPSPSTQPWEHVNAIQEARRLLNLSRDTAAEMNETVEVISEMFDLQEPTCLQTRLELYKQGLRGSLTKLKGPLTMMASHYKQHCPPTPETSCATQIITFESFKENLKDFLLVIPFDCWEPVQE

- binding result [1]: binds
B1: chimeric G250 antibody (antibody, V domains shown)
VH: DVKLVESGAALVKLGGSLKLSCAASGFTFSNYYMSWVRQTPEKRLELVAAINSDGGITYYLDTVKGRFTISRDNAKNTLYLQMSSLKSEDTALFYCARHRSGYFSMDYWGQGTSVTVSS
VL: DIVMTQSQRFMSTTVGDRVSITCKASQNVVSAVAWYQQKPGQSPKLLIYSASNRYTGVPDRFTGSGSGTDFTLTISNMQSEDLADFFCQQYSNYPWTFGGGTKLEIKR
notes: Used as positive control in FACS; Its making is not described apart from this

- Ka [2]: 2.69e+10 M⁻¹
- koff [2]: 1.9e-05 s⁻¹
B2: chimeric 19/2 anti-human GM-CSF monoclonal antibody (antibody, V domains shown)
VH: EVQLQQSGPELVKPGASVKISCKASGYTFTDYNIHWVKQSHGKSLDWIGYIAPYSGGTGYNQEFKNRATLTVDKSSSTAYMELRSLTSDDSAVYYCARRDRFPYFDYWGQGTTLRVSS
VL: DIVMIQSQKFVSTSVGDRVNITCKASQNVGSNVAWLQQKPGQSPKTLIYSASYRSGRVPDRFTGSGSGTDFILTITTVQSEDLAEYFCQQFNRSPLTFGSGTKLELKR
notes: made in CHO DG44 cells; also called chimeric 19/2 antibody; ch19/2
